Test: label from the status in PepcDB records
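Further: failed if final PepcDB status was selected cloned or expressed and not failed if soluble or beyond.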

Sequence | protein production
MPAAHPSAISFARQTKAIAMAAKIVPAPDYEDRVRASFARQQAMATIGAELTLVTPGIIEIEMPYSAALTQQHGFLHAGVISTALDSACGYAAFSLMPENSGVLTIEFKVNLLAPGRGERFLFRGSVTKPGRTIIVADGQAYAFAADGEAKLIATMTGTMMTVVGRDGIAG | failed
MPAFVTFGRILFAVLFIYTGATKLFAIQATADFIATKVVVPDIIAPYAKQIETATAMTTPQLLAIAVGALEIIAGLMIALNFGARFFAMLLIVYVAVATVLFYDFWNLAAPDNAKMLVDALKNLSIIGALCMIIGYGRATRPVEAAYGDV | failed
MPAGAVRRRLGRRAGGWENGGMSDSSPARPAAPVLDVWCELQCPDCHTALDDVRALRARYGDRLEVRLRHFPLEKHKYAFAAAQAAEEAVAQGRGWPYAEAVLDRVAELDRKGEPFLVEVARELGLDAEEFDTALIDGRHILIVDADQAEGKAIGVTGTPTYVIGGERLDGGKSQDGLRERIEEIADRLLAQPRD | failed
MPAIQSELDVNGEDFARNREAMLAAVAGFRELEQKVLDKAAEARPKFEKRGQLLPRERLALLLDPGAPFLELSSLAGYKLHDDKDGTQAGGGIIAGIGYIAGVRCLVSASNSAIKGGTISPTGLKKTLRLQQIAMENKLPVVTLTESGGANLNYAAEIFVEGARGFANQARISAMGIPQVTVVHGSSTAGGAYQPGLSDYVVVVRGKAKMFLAGPPLLKAATGEIASDEELGGAELHAQVAGTAEYLAENDADGVRLAREIVGMLPWNAQLPARPARSWREPLYPVEELLGVVPADPKKPYDVREIVARIADGSEFLDFKNEFDGQTVCGHLRIEGHACGLIGNNGPITPQGAAKAAQFIQLCEQSNTPLLFLHNTTGFMVGTESERQGVIKHGSKMIQAVANARVPKLTLVVGGSYGAGNYAMCGRGLDPRFIFAWPNSRTAVMGGAQAGKVLRIVTEEKHAKEGKEADPKMLEMLETVTAQKLDSQSTALYGTASLWDDGLVDPRDSRRLLGYLLDICAEAEARPLKGNSFGVAR | not failed
MPAKDVQICPIAVDTTVFRSRTWDRLKFEIEYGLQRGTTANSYLISADKIALFDPPGESFTDNFVGTLIQRLDLNSLDYVILGHVNANRAHTLKLLLSLAPQATIICSNPAAQNLEKLLADAEVNNPIQVMKGNDHLDLGRGHELTFIPTPSPRYPGQLCTYDPRTEILFTDKLFGAHVCGDQVFDEGWTIYQEDRRYYFDCLLAPAAAQVSAALNKLEAYPAQTYAPSHGPLVRYGLRELTRNYQQWLSEQQAQALEHHHHHH | failed
MPALSGPQYLGEGLKLIMRPGLRLFVLIPLTLNLLVFALLIGFAMQQFSHWVDLLMPSLPDWLSFLQYIVWPLFVLLVLVIVFFTFTMVANIISAPFNGFLSEKVEVVVRGRDDFPPFSWAELLAMIPRTMGREMRKLAYFLPRALVLLVLSFVPGVNLIATPLWILFGIWMMAVQYIDYPADNHKLGWNEMLAWLRSKRWACMGFGGVTYLALLIPLVNLVMMPAAVAGATLFWVREEGERALVK | failed
MPANPRILETMSQLFVSFPHCATLGFEYVGTDGRKPTLKLQWREDLVGNPATGILHGGVITSLVDTCSAIAVTAHLPELETIATLDLRIDYLKSATPGKAIHCTAECYRLASQIAFTRAVCYHDNPADPIAHGVATFMRESSLEHHHHHH | failed
MPAPRYKSGSSKKVYRKAPGNSSIVHYRRKKQSKAVCGACGALLNGVPRGRAVEITKLAKTEKRPERPFGGNLCPKCVKKMMVAKARNFLEHHHHHH | not failed
MPDITISWVAAILGLVVAIVLILKKFNPVYSLFFGAIVGCLIGGASLSDTVAVLLNGTQSIMGTAIRVLAAGMLAGVMMESGAAESIANAIVQKLGEKKAILSLALSTMVITAVGVFIPVAVLIVAPIALSVGKSTGISKLSLLIALSGGGKAGNIISPNPNTIAAANGFDLPLSDVMIAGFIPAVFGLITAVVLANIMRNKGSMVKETDLVEEQTKELLPLKKALIAPVLAIVLLLLNPIGAVLNISFIKSLNIDALYILPFASVVGTIAIGQTKQLAFYASSGLKRVTDTVLILIGAGAIAGLISVSDLSTQIVHLISVMGISGTFLAPISGILMGLAVGSTSTAVILATGSFGPAILDMGTSSLSAAVMVHTGATVIDSVPQGNYFHITAQSMNMTIKERIRVIPYEMCVGGVMTIVATILYGFILN | failed
MPDLMHSELTMSGPEQSLLAGALLGAGLPADAHRHLELAGRDYQSEALAEQHLREAHLLAPDHAAVLIGLYRFYFYKGRLGEALEVAQACLCKAARDNGLASDWRKVRRGDAEFSSYSAVLPRFYLFALKAYAYLQMRLGQLDEGHAAVEKLLELDPTDKVGAAVLLDVWRRIGQDDDD | failed
MPDPAAPGTLRPGGRTARIREAVLLAAGDALAADGFDALDLGEIARRAGVGKTTVYRRWGTPGGLAADLLADMAEQSLPRADTGALEEDLRANARLVVRTLDDPRQGRLFRALIAASLCNEQAAEALHRFYAVRVDEWAGCVRDAVARGEVPDGTDPHGVVAAVSAPLYYALLNTGRSLTEADADRAARAASTAARAGVWVTG | not failed
MPDPQISAIICTHNRDTYLGAAIDSLLVQDFAGEFEVVVIDNGSSDRTREVVEQRSSDSRLKYVFEPTIGLSVARNTGAKFASAEILAYLDDDAVASTHWLQVLYAAYQNYPQLAIAGGKVTLLWPPDTQPPRWLSSGLAGNLGAYDLGDKVVYIQQPGLTPRGLNYSIRRTFLEEIGGFDPHLGRVGKNLLSNEELQMTELALTGGWQVAYLPEALVAHNVAPERLNRSWFLNRGWWQGISECYREQLSGKAGVGQLSRGGERLARGLYKAFRYFSNPAERFDNLVYAYGQIGYLNAVLQGLLFTANNKGSQLEHHHHHH | not failed
MPDPRGGAQGGGVSGQEGPTLISSVQRAFRLMEAVGAHESGVPAKQLARETGLALGTTYHLLRTMVHDGYVRKLEDGTFVLGERLGALHAGSRDQTALSRVRPTLTELRDDLSAAAYLTLYEEGEIRVAEIVDGPKAPRVDLWVGFEDAGHATALGKSVLRELDAEARADYLSRHALNDLTPRTITYRAQLLRSLDAAPRGPAVTDLEEYRLGTACVAVPVRRGDTIGSLGISVDINRTACLDDAVTTLLATAERVSRGLSLTI | failed
MPDSPTLLDLFAEDIGHANQLLQLVDEEFQALERRELPVLQQLLGAKQPLMQQLERNGRARAEILREAGVSLDREGLARYARERADGAELLARGDELGELLERCQQANLRNGRIIRANQASTGSLLNILRGQDAPSLYDSRGGTASSSRQRPLSKA | not failed
MPDTPLLASSQPAAGRRALGLSARLAFAALAGGGGLAWIDRGDTALWLIAPALLWLQVLLTLAGVLALAGGSRLPGALIVALSAGLLVPPLTVEMRLLGFFLAAPPPDQSILTTAQYTLAGALAAGALAWILARRRFGRPPCSWTMLDCGGPGAEIDMDAALASLSAETLRRRDRAYIDAPPPLPFAPRGPPRPPPPTLGGPRLKRMPAGLGGAILCLESDDHTLRVHTTQGSGTLAGRLGDAALDLGESAGLRVHRSWWVAREAVSAIERDGRRMRLILLNGMDVPVSRAHQPKVLAGPWPNLRVS | failed
MPDVLPHPDGPDSTARPWCSVVIPVLHEAVTIAAQVAHVRHVAARCGMEVEVVVADGAKERDTLAALPEGCCTAVASCPGRARQMNAGAGKARGETLLFLHADTHLPPEAFTLLRRARQAGIRAGAFRLGIAATGLWFRLVERLACWRNRLVRTPYGDQAQFFDAALFRAVGGYPDQPLMEDVEVMRRLRKAGERIVILPGRVETSARRWFVEGPLRCTLRNLCLRLLYALGVPAHALSRWYRAHKERP | failed
MPDYDLIAILGPTASGKTPFAAALAAELNTEIISADSRQIYRGMDLGTGKDLEDYTINGRQIPYHLIDIADPGYKYNVFEYQRDFLTAYETIKQKGCLPVLCGGTGLYLESVLKGYRLIPVPENQELRVRLAEKSLEELTAILSSYKTLHNSTDVDTVKRAIRAIEIEEYYAKTPIEEREFPQLNSLIIGVDIDRELRREKITRRLKQRLDDGMVEEVRRLLAEGIQPDDLIYYGLEYKYLTLYAIGKMTYDEMFTGLETAIHQFAKRQMTWFRGMERRGFTIHWVDASLPMEEKINFVKQKLKEFLEHHHHHH | not failed

Reference: a protein production outcome set (Wang et al. 2014)
